Data: patent US8487082B2, “Synthetic scFv analogue to the 6313/G2 (anti angiotensin II type 1 receptor) monoclonal antibody variable regions” (Queen Mary & Westfield College, priority 2008, dated 2013)
Entries after “also recorded” stand apart in the source; their conditions may differ.

Tests used:
[1] = molecular target: biotinylated peptide antigen (AT1 receptor) (Rattus norvegicus, UniProt P25095); assay: Quartz crystal microbalance binding (Attana 100); conditions: 9 μg/ml, 100 second injection period; listed as 12D
Procedure: Data were obtained comparing the characteristics of binding of the scFv variants and IgM to immobilised peptide antigen using the Attana 100 Quartz Crystal Microbalance. This involved use of a streptavidin (0.1 mg/ml)-coated biotin “chip” (gold-plated quartz crystal in an Attana 100 Biosensor (Quartz crystal microbalance (QCM)) (Attana AB, Stockholm, Sweden). Peptide antigen corresponding to that sequence used to raise the original murine hybridoma, biotinylated at the C-terminus, was then run across the chip at a concentration of 4 μg/ml to create a binding target for scFvs and IgM that were subsequently run across the surface of the QCM chip. Attester software (Attana, Sweden) was used to monitor changes in resonance frequency of the QCM chip in response to binding of a test antibody to the antigen. The magnitude of deflection in Hz over the period of sample injection of 100 s in Hz/second was determined for each antibody at a concentration of 9 μg/ml. The rate at which the antibody was then released from the QCM chip was also measured in Hz/second from the straight-line portion of the biosensor trace as antibody gradually departed from the chip and as the resonance frequency of the chip decreased. Running buffer was PBS containing 0.005% Tween 20 (PBST) and this was also used to make antibody dilutions to give a final protein concentration of 9 μg/ml in each case. The Attana 100 was set up with a 50 μl injection loop and was running with a constant pump speed of 20 μl/min. Samples and PBST buffer controls were injected over 100 seconds giving a sample volume across the chip of 33 μl. 100 mM (6.6 μl volume) phosphoric acid solution was used to regenerate the strepavidin-antigen surface between individual experimental sample runs.

MDA-MB-231 cells = assay: In vivo hollow fiber assay; set-up: species or system balb/c nu/nu mice
Procedure: (§1) Hollow Fiber procedures followed the method of Hollingshead. (Hollingshead et al Life Sci 57 131-41 (1995)).
(§2) Polyvinylidene difluoride (PVDF) hollow fibers (500 kDa cut-off, 1 mm inner diameter; Spectrum Europe B.V., Breda, Netherlands) were flushed through with 70% ethanol using a blunt 21 gauge needle and 10 ml syringe. Fibers were then immersed in 70% ethanol for 72 hours, flushed through again with 70% ethanol, then distilled water, and then autoclaved at 131° C. Finally, before loading cell suspensions, fibers were flushed through with RPMI 1640 culture medium. Cells (MCF-7, T47D, and MDA-MB-231) were introduced into fibers at densities of 2.5 to 3.0×10^6 cells/ml. Fibers were then heat-sealed at 2 cm intervals and placed in Petri dishes containing 3 ml of the cell appropriate medium.
(§3) Cell-loaded hollow fiber segments were incubated at 37° C. in culture medium overnight before implantation into pure strain 5-6 week old female balb/c nu/nu mice. Fibers were implanted into the animals under anaesthesia (2% Isofluorane). Three 2 cm fibers, each containing one of the cell lines MCF-7, T47D, or MDA-MB-231, were implanted at both subcutaneous (s.c.) and intraperitoneal (i.p.) sites into each animal. For i.p. implants, a small incision was made through the skin and musculature of the ventral abdominal wall. Fibers were placed into the peritoneal cavity and both incisions were closed with metallic suture clips (Harvard Instruments, Edenbridge UK). For s.c. implants, a small incision was made dorsally. The fibers were implanted to the left of the dorsal midline in a cranial direction. The small incision was closed with metallic suture clips.
(§4) Mice (n=5/group) with hollow fiber implants were treated with R6313/G2 (0.07 mg/kg (2.5 nmol/kg), and 0.7 mg/kg (25 nmol/kg) in 0.1 ml PBS, subcutaneously) twice per day for six days. Control animals (n=5) received vehicle alone. 24 hours after the last injection, animals were killed by cervical dislocation and the fibers were recovered and transferred to pre-warmed RPMI 1640 medium containing 20% FBS for 30 minutes.
(§5) Cell viability was measured using a modified MTT assay. Fibers were incubated in RPMI 1640 with 20% FBS containing 1 mg/ml MTT, and incubated at 37° C. under […], 5% CO2 for 4 hours. The reagent was aspirated, and 2 ml sterile filtered 2.5% protamine sulphate (0.9 g NaCl, 2.5 g protamine sulphate in 100 ml water) was added. Specimens were stored at 4° C. for a minimum of 24 hours in the dark to fix the formazan product. Fresh protamine sulphate (2.5%) was added and fibers were stored for a further 2 to 4 hours at 4° C. Each fiber was transferred to a well in a 24 well plate, cut in half and air-dried overnight, protected from light. Dimethyl sulphoxide (DMSO) (300 μl) was added to each well and the formazan product extracted. An aliquot (190 μl) from each well was transferred to a 96 well plate and absorbance read at 540 nm using a Multiskan Ascent photometric microplate reader (Thermo labsystem). Treated values were calculated as a percentage of the controls.

T47D cells = assay: In vivo hollow fiber assay; set-up: species or system balb/c nu/nu mice; conditions: i.p. site, 0.7 mg/kg (25 nmol/kg) twice per day
Procedure: as §1, §2, §3, §4, §5

MCF-7 cells = assay: In vivo hollow fiber assay; set-up: species or system balb/c nu/nu mice
Procedure: as §1, §2, §3, §4, §5

breast cancer cells = assay: Breast cancer cell proliferation (summary statement); format: cell-based
Procedure: Confluent cell monolayers were removed from tissue culture flasks using trypsin/EDTA. Cells (15×10^3 per well) were seeded into 96 well tissue culture plates containing the appropriate medium for each cell line. […] Cell viability was assessed by the ability of metabolically active cells to reduce 2,3-bis[2-Methoxy-4-nitro-5-sulphophenyl]-2H-tetrazolium-5-carboxyanilide inner salt (XTT) to the coloured formazan product. Absorbance was measured using a Multiskan Ascent microplate reader (Thermo Labsystem, Helsinki, Finland) at a wavelength of 450 nm and a reference wavelength of 630 nm. Each measurement was performed in triplicate. IC50s were calculated using a non-linear regression formula using GraphPad Prism v4.0 software (GraphPad Software Inc, San Diego Calif., USA).

B1: R6313/G2: murine scFv analogue of the 6313/G2 anti-AT1 receptor monoclonal antibody variable domains, SEQ ID NO:15 (protein)
scFv: YAAQPAMAQVKLQQSGPELEKPGASVKISCKASGYSFTGYNMNWVKQSNGKSLEWIGNIDPYYGGTTYNQKFKGKATLTVDKSSSTAYMQLKSLTSEDSAVYYCAREVDYWGQGTTVTVSSGGGGSGGGGSGGGGSDIELTQSPASLAVSLGQRATISYRASKSVSTSGYSYMHWNQQKPGQPPRLLIYLVSNLESGVPARFSGSGSGTDFTLNIHPVEEEDAATYYCQHIRELTRSEGTKLEIKRAAAGAPVPY
modifications: 12D
change in resonance frequency (apparent on-rate, Hz/second) compared with IgM [1]: significantly greater increases in resonance frequency; also recorded: significantly greater changes in resonance frequency
cell survival in hollow fibers in vivo (MDA-MB-231 cells; MBA MB 231, i.p. site, 0.7 mg/kg (25 nmol/kg) twice per day): inhibited
cell survival in hollow fibers in vivo (MDA-MB-231 cells; MDA MB 231, s.c. site, highest dose): inhibited at the highest dose
cell survival in hollow fibers in vivo (T47D cells): inhibited
cell survival in hollow fibers in vivo (MCF-7 cells; MCF7, i.p. site, 0.07 and 0.7 mg/kg (2.5 and 25 nmol/kg) twice per day): inhibited MCF7 cell survival
cell survival in hollow fibers in vivo (MCF-7 cells; MCF-7, s.c. site): dose dependently inhibited cell survival
breast cancer cell proliferation (breast cancer cells; in the absence of angiotensin II): no effect
breast cancer cell proliferation (breast cancer cells; in the presence of up to 100 nmol angiotensin II per L): significantly inhibits breast cancer cell proliferation
